# Reference: the supplement of paper PMC9170038
# What was measured:
# MS2 coat protein [1] = test: apparent KD of MS2 coat protein, switch ON state; designed switch direction (-1 OFF switch, 1 ON switch): -1; higher = weaker reporter binding; details: FMN input: 0 or 200 uM; Eterna round: R93 (includes R88 designs)
# How it was run: (§1)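 On-chip transcription from Illumina sequencing clusters produced the designed RNA switches. These were titrated with SNAP-549-labelled MS2 coat protein (twofold steps, 0.7 or 1.5 nM to 3 µM) in 100 mM Tris-HCl pH 7.5, 80 mM KCl, 4 mM MgCl2, with or without constant ligand. The apparent KD given is the per-design median of normalised cluster binding-curve fits.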
# MS2 coat protein [2] = test: apparent KD of MS2 coat protein, switch OFF state (with FMN for OFF switches, without FMN for ON switches); designed switch direction (-1 OFF switch, 1 ON switch): -1; higher = weaker reporter binding; details: FMN input: 0 or 200 uM; Eterna round: R93 (includes R88 designs)
# How it was run: as §1
Sequence,apparent KD of MS2 coat protein (MS2 coat protein [1]),apparent KD of MS2 coat protein (MS2 coat protein [2])
CCUAUGUGAGGAUAUAGCCACAUUACGAAUAAGUAGUGUGGCUAGAAGGCACAUGAGGAUCACCCAUGUAUGGG [Exclusion 4.8 (GC closing FMN)],0.0299 µM,0.0156 µM
CGAAUACAUGAGGAUCACCCAUGUUAGGAUAUGCGAAAACAAAACAAAACAAACAAAAGUAGAAGGAGCAACAA [EXC - 1],0.0181 µM,0.02 µM
CGCAAGUCAGGAUAUUCGACAAGUAAAUCAGUAGAUCAAAAGAAGAAGGGACAUGAGGAUCACCCAUGUAAAUA [JR_Exc004_Sub403],0.04 µM,0.026 µM
CGUUUGUUAGGAUAUAGCCACAUUACGAAUAAGUAGUGUGGCUAGAAGGAACAUGAGGAUCACCCAUGUAUGGG [Exclusion 4.3 (AU closing FMN)],0.11 µM,0.0785 µM
CUCAAGUAAGGAUAUAGAAGAAAAGAAGAGAAAGAAAAGAACUAGAAGGUACAUGAGGAUCACCCAUGUAAGAA [EteRNA is fun!],0.0416 µM,0.0215 µM
CUCAAGUAAGGAUAUUCAAGAAAAGAAGAGAAAGAAAAGAAGAAGAAGGUACAUGAGGAUCACCCAUGUAAGAA [EteRNA is fun!],0.0446 µM,0.0353 µM
CUCAAGUAAGGAUAUUUAUGAAAUGAAGUGAAAGAAAAGAAAAAGAAGGUACAUGAGGAUCACCCAUGUUAGAA [EteRNA is fun!],0.0328 µM,0.0196 µM
CUCAAGUGAGGAUAUACAAAUAGUAAAUAAGUAUAACAAAAGUAGAAGGCACAUGAGGAUCACCCAUGUAAAUA [JR_Exc004_Sub302],0.0294 µM,0.0263 µM
CUCAAGUUAGGAUAUCUAAGAAAAGAAGAGAAAGAAAAGAAAGAGAAGGAACAUGAGGAUCACCCAUGUAAGAA [EteRNA is fun!],0.0184 µM,0.0257 µM
CUCAUGUCAGGAUAUCAGUAGUAAAAAAAUAAAAUUACUACUGAGAAGGGACAUGAGGAUCACCCAUGUCCAAA [EX4 367: Super Stable 67],0.0931 µM,0.0361 µM
CUCAUGUCAGGAUAUGUAGCAUGAUACGAAAGUAUCAUGCUACAGAAGGGACAUGAGGAUCACCCAUGUGAUCA [Ex4: 941],0.0317 µM,0.0255 µM
CUCUAGUUAGGAUAUGCAAGAAAAGAAAAGAAAGAAAAGAAGCAGAAGGAACAUGAGGAUCACCCAUGUAAGAA [EteRNA is fun!],0.0494 µM,0.0625 µM
CUCUUGUAAGGAUAUCACCACACAAAAAAAAAAAAGUGUGGUGAGAAGGUACAUGAGGAUCACCCAUGUACUAA [Banishment 12 - Jieux - Exclusion 4],0.0236 µM,0.0252 µM
CUCUUGUCAGGAUAUAGAAGAAAAGAAGAGAAAGAAAAGAACUAGAAGGGACAUGAGGAUCACCCAUGUAAGAA [EteRNA is fun!],0.0487 µM,0.0492 µM
CUCUUGUCAGGAUAUCGAUGAAUAAUAAAACAGAGGAACAUUGAGAAGGGACAUGAGGAUCACCCAUGUAAAAC [May 83],0.0731 µM,0.0489 µM
CUCUUGUCAGGAUAUGAAAGAAAAGAAAAGAAAGAAAAGAAUCAGAAGGGACAUGAGGAUCACCCAUGUAAGAA [EteRNA is fun!],0.064 µM,0.0769 µM
CUCUUGUCAGGAUAUGCAAGAAAAGAAAAGAAAGAAAAGAAGCAGAAGGGACAUGAGGAUCACCCAUGUAAGAA [EteRNA is fun!],0.0767 µM,0.0777 µM
CUCUUGUGAGGAUAUGUAAGAAAAGAAGAGAAAGAAAAGAAACAGAAGGCACAUGAGGAUCACCCAUGUAAGAA [EteRNA is fun!],0.0528 µM,0.146 µM
